The record followed here is patent US20210079074A1 (Alector, published 2021).

Residue numbers refer to the chain shown, from its start. Numbers in names are those of the source.

Assay [1] has as its target T1, recombinant MS4A4A soluble polypeptide JS1.
T1 construct: also called JS1.His; loop grafted antigen
The assay is described as follows: ELISA, 1 ug/ml antibody. As for the experimental part: Anti-MS4A4A antibodies of the present disclosure were tested for their ability to bind to the different recombinant MS4A4A soluble polypeptides, as described in Example 2, as follows. Nucleic acid encoding the VH and VL domains of humanized anti-MS4A4A antibodies of the present disclosure were cloned into pcDNA3.4 vector which contains either the human IgG1 heavy chain constant domain or human kappa constant domain. The humanized anti-MS4A4A antibodies were expressed in Expi293 cells and were purified by Mab select antibody purification resin (GE Healthcare Life Science, cat#17519902) following the manufacture's protocol. ELISA was performed to measure binding of anti-MS4A4A antibodies of the present disclosure the recombinant MS4A4A soluble polypeptides. 1 μg/ml biotinylated antigens were preincubated on the streptavidin-coated ELISA plates (Thermo Scientific, cat#PI15120) for 1 hour. Plates were washed 3 times, followed by the addition of antibodies (1 μg/ml, 0.33 μg/ml, and 0.11 μg/ml antibodies. Plates were incubated at room temperature with shaking for 1 hr, washed 3 times, then 1/2500 dilution of HRP conjugates goat anti human kappa antibodies added (SigmaAldrich cat#. A7164-1ML).

In assay [2] the target is T2, FcγRIIa receptor (H131 variant) (UniProt P12318 34-317, limits assumed).
T2 sequence (looked up): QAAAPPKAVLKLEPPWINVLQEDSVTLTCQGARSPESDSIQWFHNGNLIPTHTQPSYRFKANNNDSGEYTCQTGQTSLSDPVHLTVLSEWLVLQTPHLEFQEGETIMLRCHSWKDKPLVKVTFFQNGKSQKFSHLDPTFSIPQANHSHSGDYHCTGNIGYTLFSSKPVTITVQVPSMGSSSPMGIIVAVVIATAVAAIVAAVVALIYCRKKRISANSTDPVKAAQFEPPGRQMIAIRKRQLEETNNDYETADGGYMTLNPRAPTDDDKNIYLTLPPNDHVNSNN
The assay can be described thus: cell-based or functional assay.

For assay [3], the target named is FcγRIIIa receptor (V158 variant) (UniProt P08637 17-254). The assay can be described thus: cell-based or functional assay.
FcγRIIIa receptor (V158 variant), sequence (P08637 other isoform, or with tags, fused parts or gaps mutant limits assumed): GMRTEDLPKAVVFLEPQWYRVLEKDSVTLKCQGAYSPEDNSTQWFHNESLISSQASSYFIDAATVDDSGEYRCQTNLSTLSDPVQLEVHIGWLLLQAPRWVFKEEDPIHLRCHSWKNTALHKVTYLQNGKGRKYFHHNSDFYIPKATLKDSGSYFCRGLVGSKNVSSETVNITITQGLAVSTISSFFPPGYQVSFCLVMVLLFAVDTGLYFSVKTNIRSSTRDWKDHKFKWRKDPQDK
Assay [4] has as its target human MS4A4A (human, UniProt Q96JQ5 1-239). The assay can be described thus: FACS, U937-huMS4A4A, 5 ug/ml. As for the experimental part: Anti-MS4A4A antibodies tested were either mouse IgGs purified from hybridoma supernatant or human IgG1 Fc chimeras produced recombinantly in Expi293 cells. Affinity binding to cells was determined as follows. Briefly, cells were harvested, washed, and labeled with Aqua Live/Dead for viability discrimination. After a wash with PBS, 2×10\hat{ }4 cells were aliquoted per well in 96-well U-bottom plates and incubated with 50 μL of purified anti-MS4A4A antibody at various concentrations (3× dilutions starting at 10 μg/mL) in FACS buffer (PBS+2% FBS+1 mM EDTA). After this primary incubation, the supernatant was removed via centrifugation, washed 2× with 150 μL of ice-cold FACS buffer, and incubated with the appropriate secondary antibody on ice for 15 minutes. Following the secondary antibody incubation, the cells were again washed 2× with ice-cold FACS buffer and resuspended in a final volume of 200 μL of FACS buffer. Flow cytometry analysis was performed on a FACSCanto system (BD Biosciences). Binding data was expressed as Median Fluorescent Intensity (MFI).
These experiments were performed using anti-MS4A4A antibodies at a concentration of 5 μg/ml and were assayed for cell binding by flow cytometry.

B1: anti-MS4A4A antibody 4A-306 (antibody, human IgG1, V domains shown)
VH: QVQLVQSGAEVKKPGASVKVSCKASGYTFTNYWMQWVRQAPGQGLEWMGATHPGHGDTRYAQKFQGRVTMTRDTSTSTVYMELSSLRSEDTAVYYCAREEVYYGFRSYWYFDVWGRGTLVTVSS
VL: DIQMTQSPSSLSASVGDRVTITCRASESVDNYGVSFMNWYQQKPGKAPKLLIYGASNQGSGVPSRFSGSGSGTDFTLTISSLQPEDFATYYCQQSKEVPPTFGGGTKVEIK
notes: human IgG1/kappa
As to B1, in assay [1], the OD450 stood at 0.12.

B2: anti-MS4A4A antibody 4A-313 K322A huIgG1 (antibody)
heavy: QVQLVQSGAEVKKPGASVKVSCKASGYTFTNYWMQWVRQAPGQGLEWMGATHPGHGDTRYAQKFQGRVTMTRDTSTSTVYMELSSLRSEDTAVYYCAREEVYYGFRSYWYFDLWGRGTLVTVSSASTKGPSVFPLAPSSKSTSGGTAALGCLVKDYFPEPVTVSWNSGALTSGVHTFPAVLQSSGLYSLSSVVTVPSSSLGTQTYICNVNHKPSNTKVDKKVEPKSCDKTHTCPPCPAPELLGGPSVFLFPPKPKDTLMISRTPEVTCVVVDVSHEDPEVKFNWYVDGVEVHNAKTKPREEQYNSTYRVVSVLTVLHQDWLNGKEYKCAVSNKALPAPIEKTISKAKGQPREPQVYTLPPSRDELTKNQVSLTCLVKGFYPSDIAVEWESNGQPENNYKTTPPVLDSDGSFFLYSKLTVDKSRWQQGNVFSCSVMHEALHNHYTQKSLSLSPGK
light: EIVLTQSPATLSLSPGERATLSCRASESVDNYGVSRMNWYQQKPGQAPRLLIYGASNQGSGIPARFSGSGSGTDFTLTISSLEPEDFAVYYCQQSKEVPPTFGGGTKVEIKRTVAAPSVFIFPPSDEQLKSGTASVVCLLNNFYPREAKVQWKVDNALQSGNSQESVTEQDSKDSTYSLSSTLTLSKADYEKHKVYACEVTHQGLSSPVTKSFNRGEC
Regarding B2, in assay [2], the “luminescence, ADCP reporter, 3.048316 ng/mL” value amounted to 51; the “luminescence, ADCP reporter, 9.144947 ng/mL” value turned out to be 46; the “luminescence, ADCP reporter, 27.43484 ng/mL” value worked out at 44; the “luminescence, ADCP reporter, 82.30453 ng/mL” value is 66. Also, in assay [2], the “luminescence, ADCP reporter, 246.9136 ng/mL” value amounted to 60; the “luminescence, ADCP reporter, 740.7407 ng/mL” value was 54; the “luminescence, ADCP reporter, 2,222.222 ng/mL” value stood at 67; the “luminescence, ADCP reporter, 6,666.667 ng/mL” value was 242. Further, the “luminescence, ADCP reporter, 20,000 ng/mL” value in assay [2] was found to be 154. Besides, in assay [3], the “luminescence, ADCC reporter, 3.048316 ng/mL” value worked out at 338; the “luminescence, ADCC reporter, 9.144947 ng/mL” value was 338; the “luminescence, ADCC reporter, 27.43484 ng/mL” value was determined as 341; the “luminescence, ADCC reporter, 82.30453 ng/mL” value came out at 426. Further, in assay [3], the “luminescence, ADCC reporter, 246.9136 ng/mL” value is 508; the “luminescence, ADCC reporter, 740.7407 ng/mL” value was 623; the “luminescence, ADCC reporter, 2,222.222 ng/mL” value stood at 1020; the “luminescence, ADCC reporter, 6,666.667 ng/mL” value turned out to be 1180. In addition, the “luminescence, ADCC reporter, 20,000 ng/mL” value in assay [3] is 1220.

B3: anti-MS4A4A antibody 4A-333 (antibody, human IgG1, V domains shown)
VH: QVQLVQSGSELKKPGASVKVSCKASGYIFTSYGLSWVRQAPGQGLEWMGWINTYSGVPTYAQGFTGRFVFSLDTSVSTTYLQISSLKAEDTAVYYCARSLVDYWGQGTLVTVSS
VL: DVVMTQSPLSLPVTLGQPASISCKSSQSLLYSDGKTYLSWFQQRPGQSPRRLIYLVSKLDSGVPDRFSGSGSGTDFTLKISRVEAEDVGVYYCWQGIDFHQTFGGGTKVEIK
notes: humanized 4A-21; human IgG1/kappa
Consider B3, for which the OD450 in assay [1] stood at 1.79. In addition, the MFI in assay [4] was 350.

B4: anti-MS4A4A antibody 4A-346 (antibody, human IgG1, V domains shown)
VH: QVQLVQSGAEVKKPGASVKVSCKASGYIFTSYGLSWVRQAPGQGLEWMGWINTYSGVPTYAQKFQGRVTMTRDTSTSTVYMELSSLRSEDTAVYYCARSLVDYWGQGTLVTVSS
VL: B3 VL with V2I, S7T, P12S, L15P, F41Y, Q42L, R44K, S48P, R50Q, R51L
notes: as for B3
Turning to B4, the OD450 in assay [1] was 0.148. This molecule also yielded an MFI in assay [4] of 56.1.

B5: anti-MS4A4A antibody 4A-341 (antibody, human IgG1, V domains shown)
VH: B4 VH with G44R, A61S, M70I, T76A, V79A
VL: B3 VL with S7T, P12S, L15P, F41Y, Q42L, R44K, S48P, R50Q, R51L
notes: as for B3
In the case of B5, the OD450 in assay [1] stood at 0.162.

B6: anti-MS4A4A antibody 4A-340 (antibody, human IgG1, V domains shown)
VH: B4 VH with G44R, A61S, M70I, R72L, T76A, V79T
VL: B3 VL with S7T, P12S, L15P, F41Y, Q42L, R44K, S48P, R50Q, R51L
notes: as for B3
As to B6, the OD450 in assay [1] came to 0.146.

B7: anti-MS4A4A antibody 4A-338 (antibody, human IgG1, V domains shown)
VH: B3 VH
VL: B3 VL with S7T, L11S, F41L, S48P, R51L, S72A
notes: as for B3
Turning to B7, in assay [1], the OD450 is 1.65. In assay [4], this molecule registered an MFI of 222.

B8: anti-MS4A4A antibody 4A-342 (antibody, human IgG1, V domains shown)
VH: B4 VH with V2I
VL: B3 VL with S7T, P12S, L15P, F41Y, Q42L, R44K, S48P, R50Q
notes: as for B3
Regarding B8, the OD450 in assay [1] is 1.09. Further, the MFI in assay [4] amounted to 538.

B9: anti-MS4A4A antibody 4A-347 (antibody, human IgG1, V domains shown)
VH: B4 VH with G44R, A61S, M70I, R72L, T76A, V79T
VL: B3 VL with V2I, S7T, P12S, L15P, F41Y, Q42L, R44K, S48P, R50Q, R51L
notes: as for B3
On to B9, for which the OD450 in assay [1] came out at 0.141.

B10: anti-MS4A4A antibody 4A-345 (antibody, human IgG1, V domains shown)
VH: B4 VH with G44R, A61S, M70I, T76A, V79A
VL: B3 VL with V2I, S7T, P12S, L15P, F41Y, Q42L, R44K, S48P, R50Q, R51L
notes: as for B3
Consider B10, for which the OD450 in assay [1] worked out at 0.132.

B11: anti-MS4A4A antibody 4A-337 (antibody, human IgG1, V domains shown)
VH: B3 VH
VL: B3 VL with V2I, S7T, L11S, F41L, S48P, R51L, S72A
notes: as for B3
For B11, the OD450 in assay [1] worked out at 1.33. In addition, the MFI in assay [4] came to 218.

B12: anti-MS4A4A antibody 4A-339 (antibody, human IgG1, V domains shown)
VH: B3 VH
VL: B3 VL with S7T, L11S, F41L, S48P, S72A
notes: as for B3
With B12, in assay [1], the OD450 turned out to be 1.76. For the same molecule, the MFI in assay [4] is 284.

B13: anti-MS4A4A antibody 4A-334 (antibody, human IgG1, V domains shown)
VH: B3 VH with T79A
VL: B3 VL with V2I, S7T, L11S, F41L, S48P, R51L, S72A
notes: as for B3
For the molecule B13, the OD450 in assay [1] was found to be 1.53. The molecule also came in with an MFI in assay [4] of 296.

B14: anti-MS4A4A antibody 4A-336 (antibody, human IgG1, V domains shown)
VH: B3 VH with T79A
VL: B3 VL with S7T, L11S, F41L, S48P, S72A
notes: as for B3
For B14, the OD450 in assay [1] stood at 1.7. This molecule yielded an MFI in assay [4] of 309.

B15: anti-MS4A4A antibody 4A-343 (antibody, human IgG1, V domains shown)
VH: B4 VH with V2I, R72L, V79T
VL: B3 VL with S7T, P12S, L15P, F41Y, Q42L, R44K, S48P, R50Q
notes: as for B3
As for B15, the OD450 in assay [1] worked out at 1.37. Also, in assay [4], the MFI was 513.

B16: anti-MS4A4A antibody 4A-344 (antibody, human IgG1, V domains shown)
VH: B4 VH
VL: B3 VL with S7T, P12S, L15P, F41Y, Q42L, R44K, S48P, R50Q
notes: as for B3
With B16, the OD450 in assay [1] stood at 0.719. In assay [4], the MFI is 427.

B17: anti-MS4A4A antibody 4A-335 (antibody, human IgG1, V domains shown)
VH: B3 VH with T79A
VL: B3 VL with S7T, L11S, F41L, S48P, R51L, S72A
notes: as for B3
On to B17, for which, in assay [1], the OD450 turned out to be 1.66. The MFI in assay [4] came out at 286.

B18: anti-MS4A4A antibody 4A-305 (antibody, human IgG1, V domains shown)
VH: EVQLVQSGAEVKKPGATVKISCKVSGYTFTNYWMQWVQQAPGKGLEWMGATHPGHGDTRYAEKFQGRVTITADTSTDTAYMELSSLRSEDTAVYYCAREEVYYGFRSYWYFDVWGRGTLVTVSS
VL: DIVMTQSPDSLAVSLGERATINCRASESVDNYGVSFMNWYQQKPGQPPKLLIYGASNQGSGVPDRFSGSGSGTDFTLTISSLQAEDVAVYYCQQSKEVPPTFGGGTKVEIK
notes: human IgG1/kappa
For B18, in assay [1], the OD450 amounted to 0.116.

B19: anti-MS4A4A antibody 4A-303 (antibody, human IgG1, V domains shown)
VH: EVQLVQSGAEVKKPGESLKISCKGSGYTFTNYWMQWVRQMPGKGLEWMGATHPGHGDTRYSPSFQGQVTISADKSISTAYLQWSSLKASDTAMYYCAREEVYYGFRSYWYFDVWGRGTLVTVSS
VL: B18 VL
notes: human IgG1/kappa
For B19, the OD450 in assay [1] was determined as 0.121.

B20: anti-MS4A4A antibody 4A-310 (antibody, human IgG1, V domains shown)
VH: B19 VH with I76S
VL: B18 VL
notes: human IgG1/kappa
On to B20, for which, in assay [1], the OD450 turned out to be 0.118.

B21: anti-MS4A4A antibody 4A-307 (antibody, human IgG1, V domains shown)
VH: B1 VH with R72A, T74K
VL: B18 VL
notes: human IgG1/kappa
For B21, in assay [1], the OD450 is 0.126.

B22: anti-MS4A4A antibody 4A-311 (antibody, human IgG1, V domains shown)
VH: B18 VH with T74K, D77S
VL: B18 VL
notes: human IgG1/kappa
For B22, in assay [1], the OD450 worked out at 0.122.
